Measured values: article PMC4559223
Where two headings read alike, the source gives them in different places.

Experiments:
GATA3 C-finger [1] = molecular target: T1, GATA3 C-finger (mouse, UniProt P23772 308-370); test: X-ray crystallography
GATA3 C-finger [2] = molecular target: T1, GATA3 C-finger; test: X-ray crystallography; remark: listed apart in the source

T1 sequence (P23772 308-370): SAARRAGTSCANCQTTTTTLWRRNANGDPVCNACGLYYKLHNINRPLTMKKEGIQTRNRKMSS

Binder | binding result (GATA3 C-finger [1]) | binding result (GATA3 C-finger [2])
ADJ DNA (crystal) (dsDNA) DNA 1: TTCTGATAAGACTTATCTGC DNA 2: AAGCAGATAAGTCTTATCAG | binds | –
OPP DNA (crystal) (dsDNA) DNA 1: TTGATAAATCAGAGATAACC DNA 2: AAGGTTATCTCTGATTTATC | – | binds
